Test results from patent US11857697B2, “Compositions and methods for obtaining 3-dimensional lung-like epithelium and related uses thereof” (THE REGENTS OF THE UNIVERSITY OF MICHIGAN, priority 2017, dated 2024).

What was measured:
human fetal lung buds = test: Marker expression (QRT-PCR, immunostaining) in cultured human fetal lung buds; type: cell-based
Experimental: RNA was extracted using the MagMAX-96 Total RNA Isolation System (Life Technologies). RNA quality and concentration was determined on a Nanodrop 2000 spectrophotometer (Thermo Scientific). 100 ng of RNA was used to generate a cDNA library using the SuperScript VILO cDNA master mix kit (Invitrogen) according to manufacturer's instructions. qRT-PCR analysis was conducted using Quantitect SYBR Green Master Mix (Qiagen) on a Step One Plus Real-Time PCR system (Life Technologies). Expression was calculated as a change relative to GAPDH expression using arbitrary units, which were calculated by the following equation: [2^(GAPDH Ct−Gene Ct)]×10,000. A Ct value of 40 or greater was considered not detectable. A list of primer sequences used can be found in Table 1.
Mouse bud, human bud, and HLO tissue was fixed in 4% Paraformaldehyde (Sigma) for 2 hours and rinsed in PBS overnight. Tissue was dehydrated in an alcohol series, with 30 minutes each in 25%, 50%, 75% Methanol:PBS/0.05% Tween-20, followed by 100% Methanol, and then 100% Ethanol. Tissue was processed into paraffin using an automated tissue processor (Leica ASP300). Paraffin blocks were sectioned 5-7 uM thick, and immunohistochemical staining was performed as previously described (Spence et al., 2009). A list of antibodies, antibody information and concentrations used can be found in Table 2. […]

[1] = tested on: hPSC-derived foregut spheroids / HLOs; test: hPSC-derived foregut spheroid / human lung organoid (HLO) culture: growth and phenotype; type: cell-based
Experimental: Given the robustness by which 3F media supported mouse and human lung bud progenitor growth and identity, experiments sought to determine whether these culture conditions could promote a distal epithelial lung progenitor-like population from hPSCs. NKX2.1+ ventral foregut spheroids were generated as previously described (Dye et al., 2016a; 2015), and were cultured in a droplet of Matrigel and overlaid with media containing 3F (FGF7, CHIR-99021, RA). Spheroids were considered to be “day 0” on the day they were placed in Matrigel. […] Epithelial structures grew first as cystic structures over the course of 2 weeks, followed by a period of epithelial folding that occurred between weeks 3-4 (FIG. 7A; FIG. 8C-D). Around 5-6 weeks in culture, the epithelial structures began forming bud-like structures that resembled human fetal epithelial distal bud tips that underwent bifurcations (FIG. 7A-B; FIG. 8D—bottom row). HLOs were passaged by gently removing Matrigel and replating in a fresh droplet while preserving structural integrity. In this way, HLOs were able to grow for over 16 weeks in culture while retaining their original shape. HLOs could also be passaged using mechanical shear through a 27-gauge needle, followed by embedding in fresh Matrigel and 3F media (FIG. 8E). Following passage, HLOs robustly re-established many small cysts that were expanded and serially passaged every 7-10 days many times (FIG. 8F).
The University of Michigan Human Pluripotent Stem Cell Research Oversight (hPSCRO) Committee approved all experiments using human embryonic stem cell (hESC) lines. hESC line UM63-1 (NIH registry #0277) was obtained from the University of Michigan and hESC line H9 (NIH registry #0062) was obtained from the WiCell Research Institute. ES cell lines were routinely karyotyped to ensure normal karyotype and ensure the sex of each line (H9-XX, UM63-1-XX). Cells are monitored for mycoplasma infection monthly using the MycoAlert Mycoplasma Detection Kit (Lonza). […]

[2] = proportion of organoids in the medium

B1: Recombinant Human Fibroblast Growth Factor 7 (protein, UniProt P21781 32-194, looked up)
Fibroblast growth factor 7: CNDMTPEQMATNVNCSSPERHTRSYDYMEGGDIRVRRLFCRTQWYLRIDKRGKVKGTQEMKNNYNIMEIRTVAVGIVAIKGVESEFYLAMNKEGKLYAKKECNEDCNFKELILENHYNTYASAKWTHNGGEMFVALNQKGIPVRGKKTKKEQKTAHFLPMAIT
notes: Recombinant human growth factor from R&D systems, used at 10 ng/mL unless otherwise noted
For B1, the “Expression of proximal airway markers P63 and SCGB1A1 (QRT-PCR)” value (human fetal lung buds; 4 weeks in culture, compared to 14 week old human fetal lung) was “significantly increased expression”, the “SOX9 and SOX2 immunostaining” value (human fetal lung buds; sections and wholemount, 4 weeks in vitro) was “expressed both markers, but strong cytoplasmic SOX9 localization was observed” and the “HLO morphology after switch to FGF7 only” value ([1]; 42 days 3F then 26 days FGF7 only, compared to 3F HLOs) was “lost the peripheral bud-like regions”. The “HLOs with 'dense' phenotype” value [1, 2] was 90% and the “HLOs with clear epithelial phenotype” value [1, 2] was 5%.
